Assay results taken from paper PMC7367873, “Dissecting the sequence determinants for dephosphorylation by the catalytic subunits of phosphatases PP1 and PP2A” (Nature Communications, 2020).

Assays:
[1] = tested on: GFP-14-3-3β and its binding proteins; assay: GFP-14-3-3β co-IP with LC-MS/MS label-free quantification, untreated versus PP1c-treated; set-up: species or system human; settings: pairwise comparison PP1 vs untreated
GFP-14-3-3β = GFP-14-3-3β co-IP with LC-MS/MS, untreated GFP-14-3-3β versus GFP control (14-3-3 interactome); assay type: binding, human; settings: pairwise comparison untreated vs GFP

| Difference (log2), PP1 vs untreated [1] | Molecule | Difference (log2), untreated vs GFP (GFP-14-3-3β) |
| --- | --- | --- |
| 0.218 log2 | TMEM41B (protein, UniProt Q5BJD5 1-291, looked up) Transmembrane protein 41B: MAKGRVAERSQLGAHHTTPVGDGAAGTRGLAAPGSRDHQKEKSWVEAGSARMSLLILVSIFLSAAFVMFLVYKNFPQLSEEERVNMKVPRDMDDAKALGKVLSKYKDTFYVQVLVAYFATYIFLQTFAIPGSIFLSILSGFLYPFPLALFLVCLCSGLGASFCYMLSYLVGRPVVYKYLTEKAVKWSQQVERHREHLINYIIFLRITPFLPNWFINITSPVINVPLKVFFIGTFLGVAPPSFVAIKAGTTLYQLTTAGEAVSWNSIFILMILAVLSILPAIFQKKLKQKFE | 0.8349 log2 |
| 0.2527 log2 | PLEKHA7 (protein, UniProt Q6IQ23 1-1121, looked up) Pleckstrin homology …: MAAATVGRDTLPEHWSYGVCRDGRVFFINDQLRCTTWLHPRTGEPVNSGHMIRSDLPRGWEEGFTEEGASYFIDHNQQTTAFRHPVTGQFSPENSEFILQEEPNPHMSKQDRNQRPSSMVSETSTAGTASTLEAKPGPKIIKSSSKVHSFGKRDQAIRRNPNVPVVVRGWLHKQDSSGMRLWKRRWFVLADYCLFYYKDSREEAVLGSIPLPSYVISPVAPEDRISRKYSFKAVHTGMRALIYNSSTAGSQAEQSGMRTYYFSADTQEDMNAWVRAMNQAAQVLSRSSLKRDMEKVERQAVPQANHTESCHECGRVGPGHTRDCPHRGHDDIVNFERQEQEGEQYRSQRDPLEGKRDRSKARSPYSPAEEDALFMDLPTGPRGQQAQPQRAEKNGMLPASYGPGEQNGTGGYQRAFPPRTNPEKHSQRKSNLAQVEHWARAQKGDSRSLPLDQTLPRQGPGQSLSFPENYQTLPKSTRHPSGGSSPPPRNLPSDYKYAQDRASHLKMSSEERRAHRDGTVWQLYEWQQRQQFRHGSPTAPICLGSPEFTDQGRSRSMLEVPRSISVPPSPSDIPPPGPPRVFPPRRPHTPAERVTVKPPDQRRSVDISLGDSPRRARGHAVKNSSHVDRRSMPSMGYMTHTVSAPSLHGKSADDTYLQLKKDLEYLDLKMTGRDLLKDRSLKPVKIAESDTDVKLSIFCEQDRVLQDLEDKIRALKENKDQLESVLEVLHRQMEQYRDQPQHLEKIAYQQKLLQEDLVHIRAELSRESTEMENAWNEYLKLENDVEQLKQTLQEQHRRAFFFQEKSQIQKDLWRIEDVTAGLSANKENFRILVESVKNPERKTVPLFPHPPVPSLSTSESKPPPQPSPPTSPVRTPLEVRLFPQLQTYVPYRPHPPQLRKVTSPLQSPTKAKPKVEDEAPPRPPLPELYSPEDQPPAVPPLPREATIIRHTSVRGLKRQSDERKRDRELGQCVNGDSRVELRSYVSEPELATLSGDMAQPSLGLVGPESRYQTLPGRGLSGSTSRLQQSSTIAPYVTLRRGLNAESSKATFPRPKSALERLYSGDHQRGKMSAEEQLERMKRHQKALVRERKRTLGQGERTGLPSSRYLSRPLPGDLGSVC | 1.203 log2 |

Second part, the molecule before the results:

| Molecule | Difference (log2), PP1 vs untreated [1] | Difference (log2), untreated vs GFP (GFP-14-3-3β) |
| --- | --- | --- |
| JUP (protein, UniProt P14923 1-745, looked up) Junction plakoglobin: MEVMNLMEQPIKVTEWQQTYTYDSGIHSGANTCVPSVSSKGIMEEDEACGRQYTLKKTTTYTQGVPPSQGDLEYQMSTTARAKRVREAMCPGVSGEDSSLLLATQVEGQATNLQRLAEPSQLLKSAIVHLINYQDDAELATRALPELTKLLNDEDPVVVTKAAMIVNQLSKKEASRRALMGSPQLVAAVVRTMQNTSDLDTARCTTSILHNLSHHREGLLAIFKSGGIPALVRMLSSPVESVLFYAITTLHNLLLYQEGAKMAVRLADGLQKMVPLLNKNNPKFLAITTDCLQLLAYGNQESKLIILANGGPQALVQIMRNYSYEKLLWTTSRVLKVLSVCPSNKPAIVEAGGMQALGKHLTSNSPRLVQNCLWTLRNLSDVATKQEGLESVLKILVNQLSVDDVNVLTCATGTLSNLTCNNSKNKTLVTQNSGVEALIHAILRAGDKDDITEPAVCALRHLTSRHPEAEMAQNSVRLNYGIPAIVKLLNQPNQWPLVKATIGLIRNLALCPANHAPLQEAAVIPRLVQLLVKAHQDAQRHVAAGTQQPYTDGVRMEEIVEGCTGALHILARDPMNRMEIFRLNTIPLFVQLLYSSVENIQRVAAGVLCELAQDKEAADAIDAEGASAPLMELLHSRNEGTATYAAAVLFRISEDKNPDYRKRVSVELTNSLFKHDPAAWEAAQSMIPINEPYGDDMDATYRPMYSSDVPLDPLEMHMDMDGDYPIDTYSDGLRPPYPTADHMLA | 0.2305 log2 | -0.9623 log2 |
| ACSL3 (protein, UniProt O95573 1-720, looked up) Fatty acid CoA ligase Acsl3: MNNHVSSKPSTMKLKHTINPILLYFIHFLISLYTILTYIPFYFFSESRQEKSNRIKAKPVNSKPDSAYRSVNSLDGLASVLYPGCDTLDKVFTYAKNKFKNKRLLGTREVLNEEDEVQPNGKIFKKVILGQYNWLSYEDVFVRAFNFGNGLQMLGQKPKTNIAIFCETRAEWMIAAQACFMYNFQLVTLYATLGGPAIVHALNETEVTNIITSKELLQTKLKDIVSLVPRLRHIITVDGKPPTWSEFPKGIIVHTMAAVEALGAKASMENQPHSKPLPSDIAVIMYTSGSTGLPKGVMISHSNIIAGITGMAERIPELGEEDVYIGYLPLAHVLELSAELVCLSHGCRIGYSSPQTLADQSSKIKKGSKGDTSMLKPTLMAAVPEIMDRIYKNVMNKVSEMSSFQRNLFILAYNYKMEQISKGRNTPLCDSFVFRKVRSLLGGNIRLLLCGGAPLSATTQRFMNICFCCPVGQGYGLTESAGAGTISEVWDYNTGRVGAPLVCCEIKLKNWEEGGYFNTDKPHPRGEILIGGQSVTMGYYKNEAKTKADFFEDENGQRWLCTGDIGEFEPDGCLKIIDRKKDLVKLQAGEYVSLGKVEAALKNLPLVDNICAYANSYHSYVIGFVVPNQKELTELARKKGLKGTWEELCNSCEMENEVLKVLSEAAISASLEKFEIPVKIRLSPEPWTPETGLVTDAFKLKRKELKTHYQADIERMYGRK | 0.2597 log2 | 0.1591 log2 |
| LRRC59 (protein, UniProt Q96AG4 1-307, looked up) Leucine-rich …: MTKAGSKGGNLRDKLDGNELDLSLSDLNEVPVKELAALPKATILDLSCNKLTTLPSDFCGLTHLVKLDLSKNKLQQLPADFGRLVNLQHLDLLNNKLVTLPVSFAQLKNLKWLDLKDNPLDPVLAKVAGDCLDEKQCKQCANKVLQHMKAVQADQERERQRRLEVEREAEKKREAKQRAKEAQERELRKREKAEEKERRRKEYDALKAAKREQEKKPKKEANQAPKSKSGSRPRKPPPRKHTRSWAVLKLLLLLLLFGVAGGLVACRVTELQQQPLCTSVNTIYDNAVQGLRRHEILQWVLQTDSQQ | 0.2489 log2 | 0.4854 log2 |
